Reference: patent US7235629B2, “Functional fragment of the leptin receptor” (Vlaams Interuniversitair Instituut voor Biotechnologie VZW, priority 2000, dated 2007)

Assays:
FLAG-tagged SOCS3 = molecular target: T1, FLAG-tagged SOCS3 (Rattus norvegicus, UniProt O88583); assay: Phosphopeptide affinity chromatography with anti-FLAG Western blot: SOCS3 binding to biotinylated leptin receptor peptides; settings: lysates of about 3×10^7 HEK293T cells transfected with pMET7-fSOCS3; 5 nmoles biotinylated peptide on streptavidin-agarose; two hours at 4° C.
T1 construct: expressed in transfected cells; host or cells: HEK293T cells (transient transfection; cleared lysate used)
T1 sequence (O88583 1-225): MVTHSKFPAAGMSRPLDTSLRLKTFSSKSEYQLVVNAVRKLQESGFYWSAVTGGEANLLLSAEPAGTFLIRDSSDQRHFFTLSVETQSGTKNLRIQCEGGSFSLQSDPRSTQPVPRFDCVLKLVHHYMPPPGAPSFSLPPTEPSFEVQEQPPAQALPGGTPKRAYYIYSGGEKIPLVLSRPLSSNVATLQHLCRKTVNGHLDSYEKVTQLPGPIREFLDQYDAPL
Text: Monoclonal anti-FLAG antibody M2 was obtained from Sigma. Mouse recombinant leptin was purchased from R&D Systems. Peptides were synthesized using standard Fmoc-amino-acid solid phase chemistry on an Applied Biosystems Model 431A peptide synthesizer. Biotin was manually esterified following similar procedures as on the synthesizer and added to the reaction mixture. Incorporation of phosphotyrosine was realized by using a protected Fmoc-tyrosine-phosphobenzylester (Novabiochem). After purification, the mass of the peptides was confirmed by mass spectrometry. Sequences of the peptides were biotin-QRQPSVK(p)Y985ATLVSNDK (SEQ ID NO:7) and biotin-NHREKSVC(p)Y1077 LGVTSVNR (SEQ ID NO:8).
Approximately 10^6 HEK293T cells were lysed in 150 μl 2× loading buffer. After sonication, 30 μl was loaded on a 10% polyacrylamide gel. […] Blotting efficiency was checked using PonceauS staining (Sigma).
For phosphopeptide affinity chromatography, approximately 3×10^7 HEK293T cells transiently transfected as indicated were lysed in lysis buffer (20 mM Hepes pH 7; 1 mM MgCl2; 10 mM KCl; 0.5 mM DTT; 150 mM NaCl; 0.5% NP40; 1 mM NaVO4; 5 mM NaF; 20% glycerol; Complete™ Protease Inhibitor Cocktail (Roche)). Precipitated material was cleared by 5 minutes centrifugation at 10,000 g. To eliminate a-specific interactions, supernatants were brought on a pre-column containing Sepharose 4B beads prior to phosphopeptide affinity chromatography on streptavidin-coupled agarose beads (Sigma). Peptide concentrations were determined by a colorimetric assay using alkaline hydrolysis and a ninhydrine reagent. Fifty μl of streptavidin-agarose slurry was incubated with 5 nmoles of peptide for each reaction. Cleared lysate was incubated for two hours at 4° C. under slow stirring. […]
The interaction sites of SOCS3 with the leptin receptor were confirmed using a biochemical approach. FLAG-tagged SOCS3 was expressed upon transient transfection of pMET7-fSOCS3 in HEK293T cells and was analyzed for binding to (phospho)-tyrosine-containing peptides matching the two motifs within the leptin receptor. […]

leptin receptor [1] = assay: Leptin-induced pGL3-rPAP1-luci reporter induction in PC12 LR8 cells transiently expressing SOCS3; type: cell-based, mouse; settings: leptin 24 hours
Protocol: FIG. 1: Expression of SOCS3 leads to inhibition of leptin-induced rPAP1 expression in PC12 cells. PC12 LR8 cells were co-transfected with a plasmid encoding SOCS3 (pMET7fSOCS3) or empty vector (mock, pMET7), and a pGL3-rPAP11 reporter construct. Forty-eight hours after transfection, the cells were stimulated with leptin or left untreated. Luciferase activity was measured in triplicate after 24 hours. CPS: absolute luminescence counts per second; NS: nonstimulated negative control.
Culture conditions and transient transfection procedures for PC12 and generation of the PC12LR8 cell line were as previously described. (Eyckerman et al., 1999; Waelput et al., 2000.)
(§1) Luciferase assays, binding assays using Leptin-SEAP and Northern blot hybridizations with SOCS3 and actin probes were described previously by Eyckerman et al. (1999). β-galactosidase activity was measured using the Galacto-Star™ chemiluminescent detection kit (Tropix) and a Topcount Chemiluminescence Counter (Packard).
Through representational difference analysis, a PCR-based differential expression screening in PC12 cells expressing the mouse leptin receptor, several leptin-induced transcripts (including SOCS3) were identified. In order to check the inhibitory role of SOCS3 on leptin signaling in the cell systems used, an expression vector containing rat SOCS3 was generated. […]

[2] = molecular target: murine leptin receptor, long isoform, Y985F (mouse), P48356; assay: cell-based or functional assay
[3] = molecular target: murine leptin receptor, long isoform, Y1077F (mouse), P48356; assay: cell-based or functional assay
[4] = molecular target: murine leptin receptor, long isoform, wild type (mouse), P48356; assay: cell-based or functional assay
leptin receptor [5] = assay: rPAP1-luciferase reporter assay of leptin signalling in HEK293T cells co-transfected with leptin receptor variants and SOCS3; type: cell-based, murine; settings: 24 hours leptin
Protocol: HEK293T cells were maintained in a 10% CO2 humidified atmosphere at 37° C. and grown using DMEM with 4500 mg/l glucose, 10% fetal bovine serum and 50 μg/ml gentamycin (all from LifeTechnologies). Typically, 4×10^5 cells were seeded the day before transfection in a 6-well plate and transfected overnight with approximately 2 μg plasmid DNA using a standard calcium phosphate precipitation procedure. One day after transfection, cells were re-suspended with Cell Dissociation Agent (LifeTechnologies), seeded in a black well plate (Costar) and stimulated overnight with […] leptin or left unstimulated.
as §1
Based on its functional similarity with the gp130 chain, the leptin receptor was tested for interaction with SOCS3. Leptin receptor variants containing Y to F mutations at positions Y985, Y1077, or at both sites, were tested in a functional assay based on rPAP1-induction. Signalling via the leptin receptor variants was analyzed upon transient transfection in HEK293T cells with the pXP2d2-rPAP11uci and the FLAG-tagged pMET7-fSOCS3 expression construct. Luciferase activity data were normalized by co-transfection with pUT651 and a β-galactosidase activity assay.
Expression of leptin receptor variants and SOCS3 were confirmed, respectively, by a binding assay using a leptin-SEAP fusion protein and Western blot analysis using an anti-FLAG antibody (FIG. 3). LR expression levels were measured on transfected cells by incubation for 90 minutes with Leptin-SEAP fusion protein with or without excess leptin (100×). The transfected cells were stimulated for 24 hours with leptin or left untreated. Luciferase measurements were performed in triplicate and were normalized by co-transfection with the pUT651 β-galactosidase construct and a β-galactosidase activity assay. The results indicated a strong inhibitory activity of SOCS3 (80-90% inhibition) when the wild-type or the mutant Y1077F leptin receptor was expressed, and a moderate inhibition (30-50% inhibition) upon expression of a Y985F receptor variant.

Sequence of murine leptin receptor, long isoform, Y1077F (mouse), P48356 (P48356 22-1162 Y1077F): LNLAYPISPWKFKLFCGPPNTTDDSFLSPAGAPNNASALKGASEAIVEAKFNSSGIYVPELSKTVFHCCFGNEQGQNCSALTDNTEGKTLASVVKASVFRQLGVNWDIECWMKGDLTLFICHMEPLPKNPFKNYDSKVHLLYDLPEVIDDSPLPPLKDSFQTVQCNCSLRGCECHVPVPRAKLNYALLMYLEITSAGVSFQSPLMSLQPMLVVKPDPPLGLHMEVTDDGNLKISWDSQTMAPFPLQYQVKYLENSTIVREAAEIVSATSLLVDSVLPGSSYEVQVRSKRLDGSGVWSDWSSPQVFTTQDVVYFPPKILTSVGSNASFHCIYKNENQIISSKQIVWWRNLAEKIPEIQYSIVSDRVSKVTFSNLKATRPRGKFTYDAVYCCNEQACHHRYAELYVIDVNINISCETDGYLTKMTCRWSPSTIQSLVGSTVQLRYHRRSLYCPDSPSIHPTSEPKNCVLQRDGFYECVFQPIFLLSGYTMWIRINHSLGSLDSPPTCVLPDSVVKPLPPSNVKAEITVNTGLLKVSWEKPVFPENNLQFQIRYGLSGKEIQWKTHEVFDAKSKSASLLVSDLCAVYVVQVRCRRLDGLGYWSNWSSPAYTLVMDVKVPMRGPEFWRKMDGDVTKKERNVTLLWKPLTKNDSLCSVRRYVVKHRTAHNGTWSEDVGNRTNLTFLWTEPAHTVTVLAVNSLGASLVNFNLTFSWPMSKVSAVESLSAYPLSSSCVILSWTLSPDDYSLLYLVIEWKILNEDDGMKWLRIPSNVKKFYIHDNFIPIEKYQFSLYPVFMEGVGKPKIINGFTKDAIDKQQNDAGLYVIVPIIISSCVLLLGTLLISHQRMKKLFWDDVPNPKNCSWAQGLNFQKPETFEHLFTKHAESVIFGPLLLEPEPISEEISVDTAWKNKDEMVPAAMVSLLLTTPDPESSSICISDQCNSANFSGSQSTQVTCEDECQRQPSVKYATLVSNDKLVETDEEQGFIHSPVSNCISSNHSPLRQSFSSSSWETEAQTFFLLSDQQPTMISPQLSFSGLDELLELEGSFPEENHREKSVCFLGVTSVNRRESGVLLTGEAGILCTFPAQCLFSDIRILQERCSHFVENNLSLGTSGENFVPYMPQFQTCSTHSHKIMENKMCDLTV
Sequence of murine leptin receptor, long isoform, wild type (mouse), P48356 (P48356 22-1162): as the sequence (P48356 22-1162 Y1077F) above, with F1056Y counted along it
Sequence of murine leptin receptor, long isoform, Y985F (mouse), P48356 (P48356 22-1162 Y985F): as the sequence (P48356 22-1162 Y1077F) above, with Y964F, F1056Y counted along it

## biotin-QRQPSVK(p)Y985ATLVSNDK (SEQ ID NO:7) [phosphorylated Y985 peptide]
FLAG-tagged SOCS3
  binding of SOCS3 to peptide (Western blot, anti-FLAG antibody): clear and specific binding

## biotin-NHREKSVC(p)Y1077 LGVTSVNR (SEQ ID NO:8) [phosphorylated Y1077 peptide]
FLAG-tagged SOCS3
  binding of SOCS3 to peptide (Western blot, anti-FLAG antibody): binds specifically to the phosphorylated Y1077 peptide, but apparently with a much lower affinity

## biotin-QRQPSVK(p)Y985ATLVSNDK (SEQ ID NO:7) [non-phosphorylated peptide]
FLAG-tagged SOCS3
  binding of SOCS3 to peptide (Western blot, anti-FLAG antibody): did not bind any SOCS3 protein

B1: FLAG-tagged rat SOCS3 (expressed from pMET7fSOCS3), O88583 1-225 (protein)
chain: MDYKDDDDKMVTHSKFPAAGMSRPLDTSLRLKTFSSKSEYQLVVNAVRKLQESGFYWSAVTGGEANLLLSAEPAGTFLIRDSSDQRHFFTLSVETQSGTKNLRIQCEGGSFSLQSDPRSTQPVPRFDCVLKLVHHYMPPPGAPSFSLPPTEPSFEVQEQPPAQALPGGTPKRAYYIYSGGEKIPLVLSRPLSSNVATLQHLCRKTVNGHLDSYEKVTQLPGPIREFLDQYDAPL
Leptin receptor [1]
  inhibition of leptin-mediated reporter induction: marked inhibition
[2]
  inhibition of leptin-induced rPAP1 luciferase reporter: 30 to 50 % inhibition
[3]
  inhibition of leptin-induced rPAP1 luciferase reporter: 80 to 90 % inhibition
[4]
  inhibition of leptin-induced rPAP1 luciferase reporter: 80 to 90 % inhibition
Leptin receptor [5]; Y985F receptor variant
  inhibition of leptin signalling (rPAP1 luciferase): 30-50 % inhibition
Leptin receptor [5]; double Y985/1077F mutant
  inhibition of leptin signalling (rPAP1 luciferase): no inhibition was observed
Leptin receptor [5]; mutant Y1077F leptin receptor
  inhibition of leptin signalling (rPAP1 luciferase): 80-90 % inhibition
Leptin receptor [5]; wild-type leptin receptor
  inhibition of leptin signalling (rPAP1 luciferase): 80-90 % inhibition
